Experimental data taken from the supplement of paper PMC12764529.
± gives the half width of the 95% confidence interval.

Legend:
[1] = folding stability dG unfold from chymotrypsin proteolysis; higher = more stable
Method: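 Folding stability of de novo designed mini-proteins (<80 aa, no Cys; designed by TrROS, TrMRF, ProteinMPNN and the joint model) was measured by cDNA display proteolysis with trypsin and chymotrypsin. Each protease was used at 11 concentrations in a threefold dilution series plus a no-protease condition. K50 was inferred by Bayesian fitting of sequencing counts, and dG unfold was derived against a sequence-predicted unfolded-state K50 (Tsuboyama et al. method). Sequences shown include variable-length N-terminal GS-type padding (SAGGSAGG...) inside a display construct carrying a PA tag. Rows were kept only if the AF2 dimer inter-PAE was >15, to exclude likely homo-oligomers.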

[2] = folding stability dG unfold (combined trypsin and chymotrypsin); higher = more stable
Outline: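 Digests were run with trypsin and chymotrypsin at 11 concentrations in threefold dilutions, plus a no-protease condition, on designed mini-proteins in a PA-tagged cDNA display construct. The mini-proteins were under 80 residues, had no cysteine, and were kept only when AlphaFold2 dimer inter-PAE was above 15. After sequencing, Bayesian fitting of the counts gave K50, from which unfolding free energy was derived against a sequence-predicted unfolded-state K50 and a shared folded-state K50, per protease or combined.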

Sequence	folding stability dG unfold [1] [kcal/mol]	folding stability dG unfold [2] [kcal/mol]
SAGGSAGGSAGSNVVYLGEEVITEVDPYSDKPYTVKVKVYLEPTPEGEKIIEEVLEKELLSAGGSAGGSAGG [r11_113_JUSTAS]	-0.719 ± 0.29	-0.94 ± 0.33
SAGGSAGGSAGYPPVPPAVVQAVVDELPRLGYTPKAVVVGEGPDLPFVLVVADDKVLLVRGSAGGSAGGSAG [r3_395_TrMRF]	0.524 ± 0.096	-0.379 ± 0.14
SAGGSAGGSAIPPDAPVEVPVRVRVGGEEFDVTATLTARPDGSVGVDVDVDVPADEAEIEPASAGGSAGGSA [r18_428_TrMRF]	0.118 ± 0.32	< -1
SAGGSAGGSAKAKVLEVEEKPVGGVNRFKIEVPLENGEPQKFYVLVEVPEDGDEKFAVKPGSAGGSAGGSAG [r3_94_TrMRF]	0.1 ± 0.16	-0.319 ± 0.18
SAGGSAGGSAKKLKIPNPDGKTYEMKVEDVDPENNNVMIRNPGNGEPFHFKKSDAKRIAEELSAGGSAGGSA [r18_161_TrROS]	-0.626 ± 0.44	< -1
SAGGSAGGSAMIETSVSLDPKNGLRKVTQNVTPEEYLKLTGGPPIPKENKTTVTLTKTLPVPSAGGSAGGSA [r18_327_JUSTAS]	-0.265 ± 0.087	-0.726 ± 0.16
SAGGSAGGSAMKLTKEYVFTKTITLKNGKTKTESEVLTEEVPPIPLEELIKRLGLPPEELISAGGSAGGSAG [r3_338_JUSTAS]	-0.126 ± 0.44	-0.186 ± 0.32
SAGGSAGGSAMPIPKVLVLKDEGTLEEAREAALKYVKEDEKVIVKIGDKEIVIPAEELKKKSAGGSAGGSAG [r3_50_TrMRF]	-0.237 ± 0.5	< -1
SAGGSAGGSAMTVYVPIEEVGPDENGEYDDELIRERVREEYPDEPVEEVLVEGPEEAERVARSAGGSAGGSA [r18_72_JUSTAS]	-0.134 ± 0.061	-0.384 ± 0.23
SAGGSAGGSAMVTVTILSEDTTDSPRTYTVLFPAEGKALPLPFPADASEAEVRARALELLASAGGSAGGSAG [r3_142_JUSTAS]	0.673 ± 0.15	< -1
SAGGSAGGSANQVKVEIEIPRMKMERDPDGGYQMEMRPVKIEIEAPMPEEQADDIAKDLIKSAGGSAGGSAG [r3_487_TrROS]	0.579 ± 0.045	0.0639 ± 0.16
SAGGSAGGSAPEPVVAKLVEVVTLPDGTPVLLFVVDHPDGPPELRLSTDALIEGDDLVDPSSAGGSAGGSAG [r3_261_TrMRF]	0.404 ± 0.078	-0.0131 ± 0.2
SAGGSAGGSAREELVRRAAEEGLPGVRVLAIPPGNREVPAIVEGDKVYSYDLPDDAEVVVASAGGSAGGSAG [r3_244_TrMRF]	0.408 ± 0.08	-0.0679 ± 0.086
SAGGSAGGSARIRFPNGYEIEVPRKRNPDGNLEITIESRNPDNPEHREMAKKIARDIADELSAGGSAGGSAG [r3_163_TrROS]	-0.0805 ± 0.06	-0.526 ± 0.17
SAGGSAGGSARTVPPDLLVRVETPDEERIVPVSELDAFFARHPDVPWRDITVVDPATGAARSAGGSAGGSAG [r3_134_JUSTAS]	0.539 ± 0.11	-0.675 ± 0.37
SAGGSAGGSASEEEKPPKIKRVTINIPEEELRERFPGNPEWAENIAREAAKEGFDEVEIDINSAGGSAGGSA [r18_441_TrROS]	0.942 ± 0.12	0.521 ± 0.17
SAGGSAGGSASLSLDQVGTVTFPANGAPALVTRLPDGSVALYFPATGRVLYLDGPNDVTPDSAGGSAGGSAG [r3_96_TrMRF]	0.97 ± 0.059	0.552 ± 0.075
SAGGSAGGSASYSVTISPEERIEPVVDYKTGERRLVERRRVVVTADPKLSPALKAAILAALSSAGGSAGGSA [r18_438_JUSTAS]	0.144 ± 0.2	-0.237 ± 0.2
SAGGSAGGSAWRTIEITWPPSNPEEFIDEISKDFGFTVEGEREPNGYHTIDFQLPPGMKIVSAGGSAGGSAG [r3_457_TrROS]	-0.137 ± 0.23	-0.224 ± 0.2
SAGGSAGGSDDAVTFTFTSAPTRLLYLDNPKTFPGSATVTLPAGNPDEFRIERFAPDTAELKPSAGGSAGGS [r20_150_TrMRF]	-0.427 ± 0.62	< -1
SAGGSAGGSEEIYIKVTVEHPNGEKRTHEIERIRDKDGLPIKQIAKELAQEPNVRDVDVEIVKSAGGSAGGS [r12_199_TrROS]	-0.316 ± 0.072	-0.56 ± 0.15

Sequence	folding stability dG unfold [1] [kcal/mol]	folding stability dG unfold [2] [kcal/mol]
SAGGSAGGSEEVVRTETSTSTTPDGKRVKTTTTTLPTPTTVTTTTVYAPGGEVLETTTTTTAASAGGSAGGS [r12_727_JUSTAS]	-0.123 ± 0.2	< -1
SAGGSAGGSELPPGPYLVTIPADPEPVVAPATFAPDGTVRVRVPEPGEEITIPRDQAEIFPVESAGGSAGGS [r12_782_JUSTAS]	0.944 ± 0.058	-0.0148 ± 0.28
SAGGSAGGSGEYVVVLLREELPDEERYLRRPVPLDAALEALKEGKLVRSSEGREWRFAEYRPESAGGSAGGS [r12_432_TrMRF]	-0.0188 ± 0.33	-0.218 ± 0.28
SAGGSAGGSGMERVEAVREALVPGDPDAVPAPITYDPQTGKLTYSVSDPRVAAALAADPLVSLSAGGSAGGS [r12_623_JUSTAS]	0.333 ± 0.11	-0.309 ± 0.19
SAGGSAGGSGMNVKTIKIYSPEGGETTVPVTGTTVTIGGETVTVTSDVVVPVPPTIKSIEVVGSAGGSAGGS [r12_779_JUSTAS]	0.769 ± 0.02	0.277 ± 0.082
SAGGSAGGSGPALANIPPDAKVTVTPLPDDSYLVDIYYPNGPVEYLDVPVGDKWVKFEVEPEKSAGGSAGGS [r20_50_TrMRF]	-0.749 ± 0.24	< -1
SAGGSAGGSKKIVLVLKVKKEKAKEKVEKAKKELEKALPKDYKIKSIEVKYDPETDKVIIVADSAGGSAGGS [r12_308_TrMRF]	0.376 ± 0.49	-0.0532 ± 0.28
SAGGSAGGSKKWIPIDSPSEIEDLLEKAPPGGKLKIYNNNGQTEKVPPNEIERTPNHWWIEVDSAGGSAGGS [r12_907_TrROS]	0.314 ± 0.17	-0.463 ± 0.45
SAGGSAGGSKWKISVHPPNGNSWKIDPGDTIKELVDQMSKENGWPYHIHVSKEEAEKLGLKPVSAGGSAGGS [r12_379_TrROS]	0.356 ± 0.13	-0.0115 ± 0.16
SAGGSAGGSLRPDEEVVAILPNGEKVPFKVESVEVSPDGSVKANLTLPGGKSLGPANLVFKPESAGGSAGGS [r12_735_TrMRF]	-0.00357 ± 0.078	-0.629 ± 0.22
SAGGSAGGSMKEGTFNSEEEVEELKKKYPNVEVYEDPETNTIHVKIKEESEKEYEEENIKKLKSAGGSAGGS [r20_191_JUSTAS]	-0.897 ± 0.6	< -1
SAGGSAGGSMLRVEVTLENGEKIEVEIEVPPGEELTLDEILAELKEKYPDLKVTEIKIEFLEPSAGGSAGGS [r12_262_TrROS_Hall]	2.63 ± 0.22	3.27 ± 0.28
SAGGSAGGSMTITIKLDNVKEVEVKFNPETNVVEIKVKVDGKEYVIRMEFVDGKIYITEIKPLSAGGSAGGS [r20_60_TrROS_Hall]	3.68 ± 0.34	4.06 ± 0.28
SAGGSAGGSMTIVNPGTPETLAATVKETIKAGKKVKVIYVSPDNPEPVAEAEVEGTAEELEKESAGGSAGGS [r12_241_TrMRF]	0.193 ± 0.11	-0.49 ± 0.29
SAGGSAGGSMTVDTTYDPSTDRVTLTVTIPAPDGSELVRTVQSTGDPEAAAAAAAAAVAAAAASAGGSAGGS [r20_33_JUSTAS]	-0.252 ± 0.14	< -1
SAGGSAGGSPAEITREEAVELAYETLPATEPAVFVFADPRLLVVYPDGADPSRNRVVEVPLLDSAGGSAGGS [r12_648_TrMRF]	-0.339 ± 0.17	-0.741 ± 0.22
SAGGSAGGSPGVRVKPVGDHYVVEIPLPPSVPLGRAVFEVEGGYAETVAVDPERGIATVRVPLSAGGSAGGS [r12_675_TrMRF]	0.091 ± 0.11	-0.352 ± 0.15
SAGGSAGGSPKPKRRTIEFPLKVPPGMSPEDVADELKQQPGFEIDEIDEVDPDEGWVKISVELSAGGSAGGS [r12_712_TrROS]	-0.377 ± 0.13	< -1
SAGGSAGGSPMPILSASADPGPDGTRTLTLRLGDKTVTFTVPASRPALIPAPADSVISLDPAGSAGGSAGGS [r12_373_TrMRF]	-0.467 ± 0.14	-0.64 ± 0.16
SAGGSAGGSPPENMKIKIYNPNGEEQTIPVEGVKIRFNGDTHEIPPGDSIPIPPGIDAIEIEKSAGGSAGGS [r12_779_TrROS]	0.512 ± 0.084	0.0926 ± 0.22
SAGGSAGGSPPESRPFTTDPGPSGEYTAKLLPPDGSSEEVVLPVSQPRTLNVPKDWSFEVLPPSAGGSAGGS [r12_517_JUSTAS]	0.157 ± 0.11	-0.338 ± 0.12
